According to paper PMC10403728, “Interactions between Fkh1 monomers stabilize its binding to DNA replication origins” (The Journal of Biological Chemistry, 2023):

Target: the molecule itself
Test: SEC + other: glycerol gradient sedimentation; purified FLAG-Fkh1; Superdex 200 5/150 GL in 150N buffer (25 mM Hepes-NaOH pH 7.6, 150 mM NaCl, 10% glycerol, 1 mM β-mercaptoethanol); main-peak and shoulder fractions on 10 to 15% glycerol gradients, 180,000g, 18 h, 4 °C; approximate molecular weight from Stokes radius and S value; monomer and dimer

B1: full-length Fkh1 (natural protein, Saccharomyces cerevisiae, UniProt P40466 1-484, looked up)
chain: MSVTSREQKFSGKYSSYTAQDRQGLVNAVTCVLSSSSDPVAVSSDYSNSLSIAREVNAYAKIAGCDWTYYVQKLEVTIGRNTDSLNLNAVPGTVVKKNIDIDLGPAKIVSRKHAAIRFNLESGSWELQIFGRNGAKVNFRRIPTGPDSPPTVLQSGCIIDIGGVQMIFILPEQETIISDYCLNHLMPKLLSTYGTNGNNNPLLRNIIEGSTYLREQRLQEEARLQQLDHLHTPLSSSSDVNPIGDPHGDTIMMEEDEEDENYTRGGIRPNTYTSSSNNAVTNGNVPHIENPSDLSLDENRYIKPPQSYASMITQAILSTPEGSISLADIYKFISDNYAFYRFSQMAWQNSVRHNLSLNKAFEKVPKRAGQQGKGMNWKISDEVRRDFLNKWNAGKLSKIRRGASVTRQLQLHMSKFGEIPAPESSSIDPRGIKAQKVKKSLQATSSILGESAPQLQRTQLTGQISTTTSMDVTTNANVNNSSLS
notes: Fkh1, Forkhead family transcription factor of Saccharomyces cerevisiae, full length (the truncation Δ410–484 tells a length of 484 residues); also called wild-type Fkh1; FLAG-tagged full-length Fkh1; source: S. cerevisiae (W303 derivative), GAL1-10 promoter, galactose-induced; also in whole-cell extract of a strain co-expressing two differently tagged copies; not shown: FLAG, N-terminal, kept
stoichiometry N: 2
